These results are taken from patent publication US20120172295A1 (INDIANA UNIVERSITY RESEARCH AND TECHNOLOGY, published 2012).

Read-outs that look alike come from different tables or passages of the source. Positions of bridges follow the written chain, without caps; N, C: chain ends. Non-standard residues stand in square brackets, D forms with d. Groups on a side chain read outwards from the residue. Primed or numbered codes have the meaning given here. No end group written: not given here. *: point of attachment. PEG 40 kDa = 40 kDa polyethylene glycol attached to Cys; PEG 40 kDa″ = 40 kDa polyethylene glycol; Stearoyl = CCCCCCCCCCCCCCCCCC(=O)*; Palmitoyl = CCCCCCCCCCCCCCCC(=O)*; Myristoyl = CCCCCCCCCCCCCC(=O)*; Nle = CCCC[C@H](N)C(=O)O; Octanoyl = CCCCCCCC(=O)*; Orn = NCCC[C@H](N)C(=O)O; Aib = CC(C)(N)C(=O)O

Assay in all cases: cell-based or functional assay
Test [1] concerns the target T1, glucagon receptor (UniProt P47871 26-477, limits assumed).
For test [2], the target named is T1, glucagon receptor. The source holds these as a separate data set.
In test [3] the target is T2, GLP-1 receptor (UniProt P43220 24-463, limits assumed).
In test [4] the target is T1, glucagon receptor. The source holds these as a separate data set.
For test [5], the target named is T2, GLP-1 receptor. The source holds these as a separate data set.
Test [6] has as its target T1, glucagon receptor. The source holds these as a separate data set.
The target in test [7] is T2, GLP-1 receptor. The source holds these as a separate data set.
In test [8] the target is T1, glucagon receptor. The source holds these as a separate data set.
Test [9] addresses T2, GLP-1 receptor. The source holds these as a separate data set.
The target in test [10] is T2, GLP-1 receptor. This is another data set of the same source.
In test [11] the target is T2, GLP-1 receptor. The source holds these as a separate data set.
Test [12] concerns the target T1, glucagon receptor. This is another data set of the same source.
In test [13] the target is T3, GIP receptor (UniProt P48546 22-466).
T3 sequence (looked up): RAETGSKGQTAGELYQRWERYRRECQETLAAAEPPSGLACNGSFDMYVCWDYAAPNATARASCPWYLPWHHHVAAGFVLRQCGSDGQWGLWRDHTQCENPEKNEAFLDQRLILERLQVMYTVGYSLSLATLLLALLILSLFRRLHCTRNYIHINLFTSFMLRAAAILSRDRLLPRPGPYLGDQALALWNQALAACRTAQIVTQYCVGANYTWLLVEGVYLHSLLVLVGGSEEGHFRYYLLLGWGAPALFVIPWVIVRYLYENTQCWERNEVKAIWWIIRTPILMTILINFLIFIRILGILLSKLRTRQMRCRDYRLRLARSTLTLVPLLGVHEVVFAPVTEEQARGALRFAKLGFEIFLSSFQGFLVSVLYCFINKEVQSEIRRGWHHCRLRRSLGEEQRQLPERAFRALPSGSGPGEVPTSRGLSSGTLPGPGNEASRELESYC

Test [14] deals with T2, GLP-1 receptor. The source holds these as a separate data set.
For test [15], the target named is T1, glucagon receptor. This is another data set of the same source.
In test [16] the target is T3, GIP receptor. The source holds these as a separate data set.
Test [17] deals with T2, GLP-1 receptor. This is another data set of the same source.
Test [18] deals with T1, glucagon receptor. The source holds these as a separate data set.
The target in test [19] is T1, glucagon receptor. The source holds these as a separate data set.
For test [20], the target named is T1, glucagon receptor. This is another data set of the same source.
Test [21] has as its target T1, glucagon receptor. This is another data set of the same source.
For test [22], the target named is T2, GLP-1 receptor. The source holds these as a separate data set.
Test [23] concerns the target T2, GLP-1 receptor. The source holds these as a separate data set.
In test [24] the target is T2, GLP-1 receptor. The source holds these as a separate data set.

T1 sequence (P47871 26-477 limits assumed): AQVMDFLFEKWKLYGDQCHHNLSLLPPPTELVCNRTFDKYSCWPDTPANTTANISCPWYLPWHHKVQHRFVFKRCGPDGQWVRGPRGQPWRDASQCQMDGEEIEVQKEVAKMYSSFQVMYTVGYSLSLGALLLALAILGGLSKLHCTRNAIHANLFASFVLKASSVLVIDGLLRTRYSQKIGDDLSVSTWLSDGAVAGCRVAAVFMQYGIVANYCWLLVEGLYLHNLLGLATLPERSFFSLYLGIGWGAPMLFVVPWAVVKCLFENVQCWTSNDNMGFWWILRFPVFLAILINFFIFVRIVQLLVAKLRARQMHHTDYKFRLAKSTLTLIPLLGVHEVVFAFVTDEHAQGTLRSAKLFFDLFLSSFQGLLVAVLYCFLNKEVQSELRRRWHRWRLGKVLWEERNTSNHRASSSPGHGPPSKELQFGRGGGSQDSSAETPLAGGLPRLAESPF

Take H[Aib]QGTFTSDK([Trp-Palmitoyl])SKYLD[Aib]RRAQDFVC(PEG 40 kDa)WLMNT-NH2 [Glucagon (1-29a) Aib2 Lys10-Trp-C16 Aib16 Cys24-40 kD]: the 50% effective concentration (EC50) with glucagon receptor [1] was 0.29 nM. In other words, the sub-nanomolar range.

B1: Peptide 79** (SEQ ID NO: 620) (peptide)
peptide: H[Aib]QGTFTSDK([Ala-Ala-Palmitoyl])SKYLD[Aib]RRAQDFVCWLMNT-NH2
modifications: N-terminus assumed
SMILES: CCCCCCCCCCCCCCCC(=O)N[C@@H](C)C(=O)N[C@@H](C)C(=O)NCCCC[C@H](NC(=O)[C@H](CC(=O)O)NC(=O)[C@H](CO)NC(=O)[C@@H](NC(=O)[C@H](Cc1ccccc1)NC(=O)[C@@H](NC(=O)CNC(=O)[C@H](CCC(N)=O)NC(=O)C(C)(C)NC(=O)[C@@H](N)Cc1c[nH]cn1)[C@@H](C)O)[C@@H](C)O)C(=O)N[C@@H](CO)C(=O)N[C@@H](CCCCN)C(=O)N[C@@H](Cc1ccc(O)cc1)C(=O)N[C@@H](CC(C)C)C(=O)N[C@@H](CC(=O)O)C(=O)NC(C)(C)C(=O)N[C@@H](CCCNC(=N)N)C(=O)N[C@@H](CCCNC(=N)N)C(=O)N[C@@H](C)C(=O)N[C@@H](CCC(N)=O)C(=O)N[C@@H](CC(=O)O)C(=O)N[C@@H](Cc1ccccc1)C(=O)N[C@H](C(=O)N[C@@H](CS)C(=O)N[C@@H](Cc1c[nH]c2ccccc12)C(=O)N[C@@H](CC(C)C)C(=O)N[C@@H](CCSC)C(=O)N[C@@H](CC(N)=O)C(=O)N[C@H](C(N)=O)[C@@H](C)O)C(C)C
Regarding B1, the EC50 in the test with glucagon receptor [2] was 0.01 nM; with GLP-1 receptor [3], 0.008 nM.

For the molecule H[Aib]QGTFTSDYSKYLDEQAAKEFIC([maleimide-PEG 40 kDa″])WLMNT (lactam 16-20) [Peptide Y-PEG], in the test with glucagon receptor [4], the “% activity of native glucagon” value stood at 8.22% and the “EC50 (cAMP, CRE-luciferase)” value is 0.667 nM. In the test with GLP-1 receptor [5], the “% activity of native GLP-1” value was 47.6% and the “EC50 (cAMP, CRE-luciferase)” value is 0.059 nM.

For HXQGTFTSDYSKYLDERRAKDFVQWLMNTK (d-Ser at 2; Lys 30 acylated with C14; C-terminal amide) [Peptide dS2E16K20K30-C14 Gluc Amide], the values for the EC50 with glucagon receptor [6] and in the test with GLP-1 receptor [7] were 3.53 nM and 0.84 nM, respectively.

With H[Aib]QGTFTSDYSKYLDEQAAKEFICWLMNT [Peptide X], the “% activity of native glucagon” value with glucagon receptor [4] was 9.38%. Moreover, the “% activity of native GLP-1” value with GLP-1 receptor [5] is 202%.

On to H[Aib]QGTFTSDK(Palmitoyl)SKYLDEQAAKEFIC(PEG 40 kDa)WLMNT-NH2 [C16 acylated Glucagon analog peptide (SEQ ID NO: 536)], for which the concentration for a half-maximal effect (EC50) in the test with glucagon receptor [8] turned out to be 17.4 nM; in the test with GLP-1 receptor [9], 0.05 nM; with GLP-1 receptor [10], 0.033 nM; with GLP-1 receptor [11], 0.0127 nM.

B2: mt-347 (peptide)
peptide: H[Aib]QGTFTSDYSKYLD[Aib]QAAKEFICWLMNGGPSSGAPPPSK(Myristoyl)-NH2
modifications: N-terminus assumed
SMILES: CCCCCCCCCCCCCC(=O)NCCCC[C@H](NC(=O)[C@H](CO)NC(=O)[C@@H]1CCCN1C(=O)[C@@H]1CCCN1C(=O)[C@@H]1CCCN1C(=O)[C@H](C)NC(=O)CNC(=O)[C@H](CO)NC(=O)[C@H](CO)NC(=O)[C@@H]1CCCN1C(=O)CNC(=O)CNC(=O)[C@H](CC(N)=O)NC(=O)[C@H](CCSC)NC(=O)[C@H](CC(C)C)NC(=O)[C@H](Cc1c[nH]c2ccccc12)NC(=O)[C@H](CS)NC(=O)[C@@H](NC(=O)[C@H](Cc1ccccc1)NC(=O)[C@H](CCC(=O)O)NC(=O)[C@H](CCCCN)NC(=O)[C@H](C)NC(=O)[C@H](C)NC(=O)[C@H](CCC(N)=O)NC(=O)C(C)(C)NC(=O)[C@H](CC(=O)O)NC(=O)[C@H](CC(C)C)NC(=O)[C@H](Cc1ccc(O)cc1)NC(=O)[C@H](CCCCN)NC(=O)[C@H](CO)NC(=O)[C@H](Cc1ccc(O)cc1)NC(=O)[C@H](CC(=O)O)NC(=O)[C@H](CO)NC(=O)[C@@H](NC(=O)[C@H](Cc1ccccc1)NC(=O)[C@@H](NC(=O)CNC(=O)[C@H](CCC(N)=O)NC(=O)C(C)(C)NC(=O)[C@@H](N)Cc1c[nH]cn1)[C@@H](C)O)[C@@H](C)O)[C@@H](C)CC)C(N)=O
Regarding B2, the “% Relative activity” value with glucagon receptor [12] was 111%; in the test with GIP receptor [13], 0.7%; with GLP-1 receptor [14] it was 67%; with glucagon receptor [15], 111%; with GIP receptor [16] it was 0.7%; with GLP-1 receptor [17], 67.1%. Besides, the EC50 in the test with glucagon receptor [15] amounted to 0.0317 nM; with GIP receptor [16], 0.383 nM; in the test with GLP-1 receptor [17], 0.0082 nM.

Turning to HSQGTFTSDK([Trp-Stearoyl])SKYLDERRAKDFVQWLMNT-NH2 [E16 K20-glucagon-NH2 with K10-W-C18], the EC50 turned out to be 0.044 nM with glucagon receptor [18] and 0.05 nM with glucagon receptor [19].

Regarding H[Aib]QGTFTSDK(Palmitoyl)SKYLD[Aib]RRAQDFVQWLMNT-NH2 [Peptide 50 (SEQ ID NO: 563)], in the test with glucagon receptor [20], the midpoint of the response, the EC50, lay at 0.572 nM. In the test with glucagon receptor [21], the EC50 was 0.052 nM and the “EC50 (20% human plasma)” value turned out to be 0.023 nM.

For the molecule HSQGTFTSDK(Palmitoyl)SKYLDERRAKDFVQWLMNT-NH2 [E16 K20-glucagon-NH2 with K10-C16], the EC50 with glucagon receptor [18] came to 0.236 nM; with GLP-1 receptor [22], 0.125 nM; with glucagon receptor [19], 0.4 nM; in the test with GLP-1 receptor [23], 0.09 nM.

Turning to HXQGTFTSDYSKYLDERRAKDFVQWLMNTK (d-Ser at 2; Lys 30 acylated with C16; C-terminal amide) [Peptide dS2E16K20K30-C16 Gluc Amide], the figures for the EC50 with glucagon receptor [6] and with GLP-1 receptor [7] were 4.89 nM and 3.05 nM, respectively.

H[Aib]QGTFTSDKSKYLDEQAAKEFIC(PEG 40 kDa)WLMNT-NH2 [Non-acylated Glucagon analog peptide (SEQ ID NO: 580)] had an EC50 with GLP-1 receptor [10] of 0.095 nM.

For the molecule HXQGTFTSDKSKYLDERRAKDFVQWLMNT (d-Ser at 2; Lys 10 acylated with C14; C-terminal amide) [Peptide dS2K10(C14)E16K20-Gluc Amide], the half-maximal effective concentration (EC50) in the test with glucagon receptor [6] is 0.155 nM; in the test with GLP-1 receptor [7], 0.041 nM.

For the molecule H[Aib]QGTFTSDK(Myristoyl)SKYLDEQAAKEFIC(PEG 40 kDa)WLMNT-NH2 [C14 acylated Glucagon analog peptide (SEQ ID NO: 535)], the 50% effective concentration (EC50) was found to be 0.044 nM with GLP-1 receptor [10] and 0.0168 nM in the test with GLP-1 receptor [11].

For the molecule H[Aib]QGTFTSDK(Octanoyl)SKYLDEQAAKEFIC(PEG 40 kDa)WLMNT-NH2 [C8 acylated Glucagon analog peptide (SEQ ID NO: 534)], the EC50 in the test with GLP-1 receptor [10] is 0.058 nM; in the test with GLP-1 receptor [11], 0.0174 nM.

On to HS[Orn]GTFTSDYSKYLDERRAQDFVQWLMNT-NH2 [Orn3, E16 Gluc-NH2], for which, in the test with GLP-1 receptor [24], the “Percent Potency Relative to Native Ligand” value turned out to be 0.1%.

For the molecule HXQGTFTSDKSKYLDERRAKDFVQWLMNT (d-Ser at 2; Lys 10 acylated with C16; C-terminal amide) [Peptide dS2K10(C16)E16K20-Gluc Amide], the figures for the concentration for a half-maximal effect (EC50) in the test with glucagon receptor [6] and with GLP-1 receptor [7] were 0.076 nM and 0.041 nM, respectively.

Take HS[Nle]GTFTSDYSKYLDERRAQDFVQWLMNT-NH2 [NLeu3, E16 Gluc-NH2]: the “Percent Potency Relative to Native Ligand” value in the test with GLP-1 receptor [24] turned out to be 20.6%.

In the case of HXQGTFTSDYSKYLDEQAAKEFICWLMNGGPSSGAPPPSK (AIB at 2; Lys 40 acylated with a C14 fatty acyl group) [mt-345], the “% Relative activity” value was found to be 193% with glucagon receptor [12]; 5% in the test with GIP receptor [13]; 153% in the test with GLP-1 receptor [14]; 193% in the test with glucagon receptor [15]; 4.99% in the test with GIP receptor [16]; 153% with GLP-1 receptor [17]. In addition, a half-maximal effect with glucagon receptor [15] (EC50) was put at 0.0183 nM.

A word on the EC50: it is the concentration giving half of the maximal effect.
